# Measurements: PMC3277881 (Molecular Cell, 2011)
# T1: Atg3 (yeast) (yeast (budding yeast), UniProt P40344 1-310)
# T1 sequence: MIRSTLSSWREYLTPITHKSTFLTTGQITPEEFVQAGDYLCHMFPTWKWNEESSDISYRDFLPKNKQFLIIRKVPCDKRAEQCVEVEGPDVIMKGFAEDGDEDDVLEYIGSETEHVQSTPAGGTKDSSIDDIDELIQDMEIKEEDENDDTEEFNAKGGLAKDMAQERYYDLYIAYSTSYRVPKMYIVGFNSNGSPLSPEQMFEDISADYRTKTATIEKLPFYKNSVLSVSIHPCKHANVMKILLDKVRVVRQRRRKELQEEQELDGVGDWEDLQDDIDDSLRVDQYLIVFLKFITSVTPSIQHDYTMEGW
# B1: full-length yeast Atg7 (enzyme, yeast (budding yeast), UniProt P38862 1-630, looked up)
# chain: MSSERVLSYAPAFKSFLDTSFFQELSRLKLDVLKLDSTCQPLTVNLDLHNIPKSADQVPLFLTNRSFEKHNNKRTNEVPLQGSIFNFNVLDEFKNLDKQLFLHQRALECWEDGIKDINKCVSFVIISFADLKKYRFYYWLGVPCFQRPSSTVLHVRPEPSLKGLFSKCQKWFDVNYSKWVCILDADDEIVNYDKCIIRKTKVLAIRDTSTMENVPSALTKNFLSVLQYDVPDLIDFKLLIIRQNEGSFALNATFASIDPQSSSSNPDMKVSGWERNVQGKLAPRVVDLSSLLDPLKIADQSVDLNLKLMKWRILPDLNLDIIKNTKVLLLGAGTLGCYVSRALIAWGVRKITFVDNGTVSYSNPVRQALYNFEDCGKPKAELAAASLKRIFPLMDATGVKLSIPMIGHKLVNEEAQHKDFDRLRALIKEHDIIFLLVDSRESRWLPSLLSNIENKTVINAALGFDSYLVMRHGNRDEQSSKQLGCYFCHDVVAPTDSLTDRTLDQMCTVTRPGVAMMASSLAVELMTSLLQTKYSGSETTVLGDIPHQIRGFLHNFSILKLETPAYEHCPACSPKVIEAFTDLGWEFVKKALEHPLYLEEISGLSVIKQEVERLGNDVFEWEDDESDEIA
# B2: synthetic peptide encompassing Atg3 residues 128-144 (Atg3^FRpep) (peptide, UniProt P40344 128-144, looked up)
# peptide: SIDDIDELIQDMEIKEE
# B3: Atg7 C-terminal domain (Atg7^CTD), yeast (domain or fragment, yeast (budding yeast))
# chain: SSLLDPLKIADQSVDLNLKLMKWRILPDLNLDIIKNTKVLLLGAGTLGCYVSRALIAWGVRKITFVDNGTVSYSNPVRQALYNFEDCGKPKAELAAASLKRIFPLMDATGVKLSIPMIGHKLVNEEAQHKDFDRLRALIKEHDIIFLLVDSRESRWLPSLLSNIENKTVINAALGFDSYLVMRHGNRDEQSSKQLGCYFCHDVVAPTDSLTDRTLDQMCTVTRPGVAMMASSLAVELMTSLLQTKYSGSETTVLGDIPHQIRGFLHNFSILKLETPAYEHCPACSPKVIEAFTDLGWEFVKKALEHPLYLEEISGLSVIKQEVERLGNDVFEWEDDESDEIA
# B4: Atg7 N-terminal domain (Atg7^NTD), yeast (domain or fragment, yeast (budding yeast), UniProt P38862 1-289, looked up)
# chain: MSSERVLSYAPAFKSFLDTSFFQELSRLKLDVLKLDSTCQPLTVNLDLHNIPKSADQVPLFLTNRSFEKHNNKRTNEVPLQGSIFNFNVLDEFKNLDKQLFLHQRALECWEDGIKDINKCVSFVIISFADLKKYRFYYWLGVPCFQRPSSTVLHVRPEPSLKGLFSKCQKWFDVNYSKWVCILDADDEIVNYDKCIIRKTKVLAIRDTSTMENVPSALTKNFLSVLQYDVPDLIDFKLLIIRQNEGSFALNATFASIDPQSSSSNPDMKVSGWERNVQGKLAPRVVDLS
# B5: Atg3^ΔFR (yeast Atg3 with the FR region, residues 86-159, deleted) (enzyme, yeast (budding yeast))
# chain: MIRSTLSSWREYLTPITHKSTFLTTGQITPEEFVQAGDYLCHMFPTWKWNEESSDISYRDFLPKNKQFLIIRKVPCDKRAEQCVEAKDMAQERYYDLYIAYSTSYRVPKMYIVGFNSNGSPLSPEQMFEDISADYRTKTATIEKLPFYKNSVLSVSIHPCKHANVMKILLDKVRVVRQRRRKELQEEQELDGVGDWEDLQDDIDDSLRVDQYLIVFLKFITSVTPSIQHDYTMEGW
# Key:
# AUC = target: the molecule itself; experiment: AUC
# full-length yeast Atg7 = target: B1; experiment: ITC
# Atg3 (yeast) = target: T1, Atg3 (yeast); experiment: ITC
binder,measurement,setting,value
B1,stoichiometry N,AUC,2
B2,Kd,full-length yeast Atg7,5.9 µM
B3,stoichiometry N,AUC,2
B4,Kd,Atg3 (yeast),1.85 µM
B5,fold change of Kd against Atg3,full-length yeast Atg7,> 40 fold
